Experimental data from paper PMC8909805, “Anticancer Activity of (S)-5-Chloro-3-((3,5-dimethylphenyl)sulfonyl)-N-(1-oxo-1-((pyridin-4-ylmethyl)amino)propan-2-yl)-1H-indole-2-carboxamide (RS4690), a New Dishevelled 1 Inhibitor” (Cancers, 2022).
Blank lines part the entries; values can stand above or below the molecule they belong to.

What was measured:
[1] = target: T1, DVL1 binding to FZD4 (Homo sapiens, UniProt O14640); test: Inhibition of DVL1 (DVL-GFP) recruitment by FZD4 at the plasma membrane of HEK293 cells; format: cell-based; conditions: HEK293 cells co-transfected with HA-FZD4 and GFP-DVL-1; 24 h treatment; read-out: EC50 ± SD DVL1 Binding Inhibition
T1 construct: host or cells: HEK293
T1 sequence (O14640 1-695): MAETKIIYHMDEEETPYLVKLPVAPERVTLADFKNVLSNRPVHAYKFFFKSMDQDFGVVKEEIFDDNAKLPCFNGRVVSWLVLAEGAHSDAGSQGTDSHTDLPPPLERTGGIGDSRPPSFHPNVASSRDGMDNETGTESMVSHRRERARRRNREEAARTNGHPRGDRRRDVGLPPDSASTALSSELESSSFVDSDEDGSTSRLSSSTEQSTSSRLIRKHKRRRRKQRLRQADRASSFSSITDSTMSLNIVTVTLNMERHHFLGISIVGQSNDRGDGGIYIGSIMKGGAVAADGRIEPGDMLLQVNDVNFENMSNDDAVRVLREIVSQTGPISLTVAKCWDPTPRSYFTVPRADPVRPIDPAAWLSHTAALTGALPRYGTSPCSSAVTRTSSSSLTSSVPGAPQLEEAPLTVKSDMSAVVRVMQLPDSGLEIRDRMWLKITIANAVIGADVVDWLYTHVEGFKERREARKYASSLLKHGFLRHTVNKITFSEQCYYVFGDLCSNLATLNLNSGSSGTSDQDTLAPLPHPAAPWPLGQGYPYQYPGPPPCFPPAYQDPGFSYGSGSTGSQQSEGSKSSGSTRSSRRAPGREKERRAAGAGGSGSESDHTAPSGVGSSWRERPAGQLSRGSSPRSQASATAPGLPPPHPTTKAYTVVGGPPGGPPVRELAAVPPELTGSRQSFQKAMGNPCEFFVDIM
Experimental: HEK293 cells were seeded in 96-well tissue culture plates at a density of 5 × 10 ^3/well. After 16–24 h seeding, cells were co-transfected with HA-FZD4-wt (0.04 µg/well) and GFP-tagged DVL-1 (0.04 µg/well) using PEI (0.25 µL/well) in a final volume of 100 µL/well. After 24 h of transfection, the medium was replaced and supplemented with the indicated compounds diluted in culture medium. After 24 h of treatment, cells were fixed in 3.7% formaldehyde freshly diluted in PBS for 30 min at RT, quenched with 0.1 M glycine/PBS for 30 min at RT, and washed with PBS. Samples were observed under a Leica confocal fluorescent microscope. Inhibition of DVL recruitment was measured by counting the percentage of cells losing GFP-DVL-1 localization on the PM. Experiments were performed in triplicate, and the standard deviations are indicated.
The crucial role played by PDZ domains in the spreading of cellular signals and their aberrant activations in many human diseases makes the PDZ domains very attractive targets for drug discovery. […] To identify new DVL1 inhibitors, we followed a virtual screening approach by fixing as the main filter a pharmacophoric model. We speculated that compound 2, the recently reported inhibitor of NHERF1 PDZ1 domain [26], may be able also to bind the DVL PDZ domain. The activity of compound 2 was assayed in HEK293 cells transiently expressing both HA-tagged-FZD4 (HA-FZD4) and the chimeric construct DVL-GFP. In the absence of HA-FZD4, DVL-GFP is localized in punctate intracellular structures known as signalosomes. In the presence of FZD-4 expression, DVL-GFP is recruited on the PM of the cell showing a drastic change in localization. As previously reported, drugs acting as inhibitors of FZD4/DVL binding reduce the amount of DVL-GFP recruited on the PM. […] Thus, we used the information gained from the binding mode of compound 2 to design a pharmacophore model that would lead to the identification of new DVL1 PDZ binders. At the same time, to better distinguish between the inhibitory activities of DVL1 and NHERF1, we added a new query to the pharmacophore model. Actually, comparing the PDZ structures of the studied proteins, we identified a significant difference. The upper part of the carboxylic binding loop was delimited by Tyr24, Ile79 and Val86 for NHERF1, while we observed Leu12, Val75 and Ile81, respectively, for DVL1. […] This peculiar feature of the DVL1 PDZ was included in our pharmacophore model by adding a hydrophobic query to obtain the required selectivity (Figure S1, Supplementary Materials). […] Thus, for each molecule, we obtained 10 conformations, and all of the proposed binding poses (7000 molecules per 10 conformations) were scored by the fitting to the pharmacophore model. […]

[2] = target: HA-tagged FZD4wt (human) (UniProt Q9ULV1)
Chain of HA-tagged FZD4wt (human) (Q9ULV1 37-537): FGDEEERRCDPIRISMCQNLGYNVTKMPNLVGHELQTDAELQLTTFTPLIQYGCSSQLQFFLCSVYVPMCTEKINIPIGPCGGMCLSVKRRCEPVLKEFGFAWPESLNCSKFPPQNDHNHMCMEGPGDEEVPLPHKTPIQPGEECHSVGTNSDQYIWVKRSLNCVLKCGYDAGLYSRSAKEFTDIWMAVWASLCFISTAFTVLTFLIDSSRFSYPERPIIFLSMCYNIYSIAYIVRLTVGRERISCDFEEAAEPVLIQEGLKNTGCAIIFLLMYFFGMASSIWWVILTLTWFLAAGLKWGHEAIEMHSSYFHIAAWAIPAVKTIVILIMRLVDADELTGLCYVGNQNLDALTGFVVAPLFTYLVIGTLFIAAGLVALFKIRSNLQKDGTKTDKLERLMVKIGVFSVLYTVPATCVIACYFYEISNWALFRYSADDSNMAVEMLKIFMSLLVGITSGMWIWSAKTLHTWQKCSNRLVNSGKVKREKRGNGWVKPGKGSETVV

EC50 [1]: 5.1 ± 0.09 µM
Molecule: O=C(Nc1ccc(CO)cc1)c1[nH]c2ccc(Cl)cc2c1Cc1ccccc1 [Compound 2, 3-benzyl-5-chloro-N-(4-(hydroxymethyl)phenyl)-1H-indole-2-carboxamide, reference compound]

EC50 of the small molecule 2 for inhibition of GFP-DVL-1 recruitment to the plasma membrane by HA-FZD4 in HEK293 cells (percentage of cells losing PM localisation; 'DVL1 Binding Inhibition') [2]: 5.1 µM | EC50 of the small molecule (R)-1 for inhibition of GFP-DVL-1 recruitment to the plasma membrane by HA-FZD4 in HEK293 cells (percentage of cells losing PM localisation; 'DVL1 Binding Inhibition') [2]: 29.5 µM | EC50 of the small molecule (S)-1 for inhibition of GFP-DVL-1 recruitment to the plasma membrane by HA-FZD4 in HEK293 cells (percentage of cells losing PM localisation; 'DVL1 Binding Inhibition') [2]: 0.49 µM
B1: GFP-tagged DVL-1 (natural protein)
chain: T1 sequence (O14640 1-695)
